This is an account of results in article PMC6701479.

Assay [1] has as its target H3K9me3 containing chromatin fibers (12 × 601 arrays with recombinant human histone octamer) (human). The assay is described as follows: single-molecule TIRF (smTIRF); chromatin fibers immobilised; 3 nM Atto 532-labeled HP1α with 50 nM KAP1; 50 mM Hepes, 130 mM KCl, 10% glycerol; 22°C.
For assay [2] the target is unchanged. The experiment in a line: single-molecule TIRF (smTIRF); chromatin fibers immobilised; 3 nM Atto 532-labeled HP1α with 200 nM KAP1; 50 mM Hepes, 130 mM KCl, 10% glycerol; 22°C.
Assay [3] has the same target. The assay is described as follows: single-molecule TIRF (smTIRF); chromatin fibers immobilised; 3 nM Atto 532-labeled HP1α with 400 nM KAP1; 50 mM Hepes, 130 mM KCl, 10% glycerol; 22°C.
Assay [4] has the same target. The experiment in a line: single-molecule TIRF (smTIRF); chromatin fibers immobilised; 3 nM Atto 532-labeled HP1α with 100 nM KAP1; 50 mM Hepes, 130 mM KCl, 10% glycerol; 22°C.

Sequence of Atto 532–labeled HP1α (P45973 whole entry): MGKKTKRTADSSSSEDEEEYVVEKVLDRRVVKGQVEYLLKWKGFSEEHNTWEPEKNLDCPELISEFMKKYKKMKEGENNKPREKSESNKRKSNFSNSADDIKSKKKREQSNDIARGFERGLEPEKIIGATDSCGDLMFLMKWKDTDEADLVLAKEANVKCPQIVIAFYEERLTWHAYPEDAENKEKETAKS

The kon is the rate constant with which the complex forms. Turning to “Atto 532–labeled HP1α (from UniProt P45973 1-191) (natural protein)”, the kon in assay [1] came to 1.03e+06 M⁻¹ s⁻¹; in assay [2] it was 1.43e+06 M⁻¹ s⁻¹; in assay [3], 770000 M⁻¹ s⁻¹; in assay [4], 1.42e+06 M⁻¹ s⁻¹. Besides, the τ (off,1) in assay [1] worked out at 0.29 s; in assay [2], 0.27 s; in assay [3], 0.23 s; in assay [4], 0.28 s. In addition, the τ (off,2) worked out at 3.64 s in assay [1], 5.47 s in assay [2], 5.03 s in assay [3] and 5.79 s in assay [4].
